Experimental data taken from the supplement of paper PMC10567573.

B1: FBXO3 (parent)
chain: DEEERRRRVFDVPIRRRRCSRLF
B2: MFF (parent)
chain: YTEGISQRMRVPEKLKVAPPNADL

Variants of: B1
Assay: protein stability index of a GFP-peptide fusion (GPS, HEK-293T) (PSI 1-6); higher = more stable
Details: c terminus: native
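Note: lentivirally expressed fusions sorted by FACS into six bins by GFP to DsRed ratio, PSI derived from sequencing read proportions per bin multiplied by bin number.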

| Variant | protein stability index |
| --- | --- |
| DEEEVRRRVFDVPIRRRRCSRLF [R5V] | 3.25 |
| GEEERRRRVFDVPIRRRRCSRLF [D1G] | 1.91 |
| AEEERRRRVFDVPIRRRRCSRLF [D1A] | 2.65 |
| LEEERRRRVFDVPIRRRRCSRLF [D1L] | 1.97 |
| EEEERRRRVFDVPIRRRRCSRLF [D1E] | 3.14 |
| KEEERRRRVFDVPIRRRRCSRLF [D1K] | 2.27 |
| HEEERRRRVFDVPIRRRRCSRLF [D1H] | 1.87 |
| PEEERRRRVFDVPIRRRRCSRLF [D1P] | 2.55 |
| CEEERRRRVFDVPIRRRRCSRLF [D1C] | 1.58 |
| WEEERRRRVFDVPIRRRRCSRLF [D1W] | 1.8 |
| IEEERRRRVFDVPIRRRRCSRLF [D1I] | 2.83 |
| TEEERRRRVFDVPIRRRRCSRLF [D1T] | 2.2 |
| SEEERRRRVFDVPIRRRRCSRLF [D1S] | 1.85 |
| VEEERRRRVFDVPIRRRRCSRLF [D1V] | 2.34 |
| MEEERRRRVFDVPIRRRRCSRLF [D1M] | 2.97 |
| QEEERRRRVFDVPIRRRRCSRLF [D1Q] | 1.69 |
| NEEERRRRVFDVPIRRRRCSRLF [D1N] | 2.05 |
| FEEERRRRVFDVPIRRRRCSRLF [D1F] | 1.92 |
| YEEERRRRVFDVPIRRRRCSRLF [D1Y] | 2.57 |

| Variant | protein stability index |
| --- | --- |
| DEEERRTRVFDVPIRRRRCSRLF [R7T] | 3.67 |
| DEEERRNRVFDVPIRRRRCSRLF [R7N] | 3.8 |
| DEEERRWRVFDVPIRRRRCSRLF [R7W] | 1.97 |
| DEEERRKRVFDVPIRRRRCSRLF [R7K] | 2.79 |
| DEEERRIRVFDVPIRRRRCSRLF [R7I] | 2.8 |
| DEEERRCRVFDVPIRRRRCSRLF [R7C] | 2.89 |
| DEEERRFRVFDVPIRRRRCSRLF [R7F] | 2.61 |
| DEEERRPRVFDVPIRRRRCSRLF [R7P] | 3.71 |
| DEEERRLRVFDVPIRRRRCSRLF [R7L] | 3.19 |
| DEEERRSRVFDVPIRRRRCSRLF [R7S] | 4.28 |
| DEEERRVRVFDVPIRRRRCSRLF [R7V] | 3.01 |
| DEEERRARVFDVPIRRRRCSRLF [R7A] | 3.6 |
| DEEERRGRVFDVPIRRRRCSRLF [R7G] | 3.64 |
| DEEERRYRVFDVPIRRRRCSRLF [R7Y] | 2.51 |
| DEEERRDRVFDVPIRRRRCSRLF [R7D] | 4 |
| DEEERRQRVFDVPIRRRRCSRLF [R7Q] | 3.69 |
| DEEERRMRVFDVPIRRRRCSRLF [R7M] | 2.3 |
| DEEERRERVFDVPIRRRRCSRLF [R7E] | 3.88 |
| DEEERRHRVFDVPIRRRRCSRLF [R7H] | 3.06 |

Variants of: B2
Assay: as above
Details: c terminus: a fixed tail appended

| Variant | protein stability index |
| --- | --- |
| YTEGISQRMRVPEKLKVAPPNACL [D23C] | 2.47 |
| YTEGISQRMRVPEKLKVAPPNAQL [D23Q] | 2.36 |
| YTEGISQRMRVPEKLKVAPPNAKL [D23K] | 2.63 |
| YTEGISQRMRVPEKLKVAPPNARL [D23R] | 2.95 |
| YTEGISQRMRVPEKLKVAPPNAYL [D23Y] | 2.57 |
| YTEGISQRMRVPEKLKVAPPNAVL [D23V] | 2.12 |
| YTEGISQRMRVPEKLKVAPPNATL [D23T] | 2.38 |
| YTEGISQRMRVPEKLKVAPPNAGL [D23G] | 2.72 |
| YTEGISQRMRVPEKLKVAPPNAWL [D23W] | 2.23 |
| YTEGISQRMRVPEKLKVAPPNAML [D23M] | 2.51 |
| YTEGISQRMRVPEKLKVAPPNAAL [D23A] | 2.34 |
| YTEGISQRMRVPEKLKVAPPNANL [D23N] | 2.65 |
| YTEGISQRMRVPEKLKVAPPNASL [D23S] | 2.11 |
| YTEGISQRMRVPEKLKVAPPNAEL [D23E] | 2.36 |
| YTEGISQRMRVPEKLKVAPPNAHL [D23H] | 2.95 |
| YTEGISQRMRVPEKLKVAPPNAFL [D23F] | 2.47 |
| YTEGISQRMRVPEKLKVAPPNAIL [D23I] | 2.29 |
| YTEGISQRMRVPEKLKVAPPNALL [D23L] | 2.02 |
| YTEGISQRMRVPEKLKVAPPNADS [L24S] | 2.86 |
| YTEGISQRMRVPEKLKVAPPNADV [L24V] | 2.61 |

| Variant | protein stability index |
| --- | --- |
| YTEGISQRMRVPEKLKVAPPNADW [L24W] | 2.14 |
| YTEGISQRMRVPEKLKVAPPNADH [L24H] | 3.52 |
| YTEGISQRMRVPEKLKVAPPNADA [L24A] | 3 |
| YTEGISQRMRVPEKLKVAPPNADR [L24R] | 2.89 |
| YTEGISQRMRVPEKLKVAPPNADT [L24T] | 2.95 |
| YTEGISQRMRVPEKLKVAPPNADY [L24Y] | 2.6 |
| YTEGISQRMRVPEKLKVAPPNADF [L24F] | 2.49 |
| YTEGISQRMRVPEKLKVAPPNADQ [L24Q] | 3.14 |
| YTEGISQRMRVPEKLKVAPPNADG [L24G] | 2.91 |
| YTEGISQRMRVPEKLKVAPPNADM [L24M] | 2.91 |
| YTEGISQRMRVPEKLKVAPPNADI [L24I] | 2.8 |
| YTEGISQRMRVPEKLKVAPPNADK [L24K] | 3 |
| YTEGISQRMRVPEKLKVAPPNADC [L24C] | 2.87 |
| YTEGISQRMRVPEKLKVAPPNADD [L24D] | 3.88 |
| YTEGISQRMRVPEKLKVAPPNADN [L24N] | 3.08 |
| YTEGISQRMRVPEKLKVAPPNADE [L24E] | 3.74 |
| YTEGISQRMRVPEKLKVAPPNADP [L24P] | 2.92 |
| YTEGISQRMRVPEKLKVAPPWADL [N21W] | 2 |
| YTEGISQRMRVPEKLKVAPPYADL [N21Y] | 2.5 |
| YTEGISQRMRVPEKLKVAPPNLDL [A22L] | 2.39 |

| Variant | protein stability index |
| --- | --- |
| YTEGISQRMRVPEKLKVAPPNCDL [A22C] | 2.62 |
| YTEGISQRMRVPEKLKVAPPNTDL [A22T] | 2.91 |
| YTEGISQRMRVPEKLKVAPPNPDL [A22P] | 2.9 |
| YTEGISQRMRVPEKLKVAPPNNDL [A22N] | 2.92 |
| YTEGISQRMRVPEKLKVAPPNWDL [A22W] | 2.45 |
| YTEGISQRMRVPEKLKVAPPNGDL [A22G] | 2.96 |
| YTEGISQRMRVPEKLKVAPPNFDL [A22F] | 2.83 |
| YTEGISQRMRVPEKLKVAPPNRDL [A22R] | 2.77 |
| YTEGISQRMRVPEKLKVAPPNDDL [A22D] | 3.34 |
| YTEGISQRMRVPEKLKVAPPNHDL [A22H] | 2.69 |
| YTEGISQRMRVPEKLKVAPPNSDL [A22S] | 2.87 |
| YTEGISQRMRVPEKLKVAPPNEDL [A22E] | 3.33 |
| YTEGISQRMRVPEKLKVAPPNIDL [A22I] | 2.45 |
| YTEGISQRMRVPEKLKVAPPNMDL [A22M] | 2.68 |
| YTEGISQRMRVPEKLKVAPPNKDL [A22K] | 3.28 |
| YTEGISQRMRVPEKLKVAPPNQDL [A22Q] | 2.81 |
| YTEGISQRMRVPEKLKVAPPNYDL [A22Y] | 2.56 |
| YTEGISQRMRVPEKLKVAPPNVDL [A22V] | 3.09 |
